# In patent US20070042954A1:
# Target: bact sCRFR2α (mouse soluble CRF receptor type 2α, amino acids 20-143, purified from E. coli) (mouse)
# Assay: radioreceptor assay, displacement of [125I-DTyr0]-astressin from purified sCRFR2α
substance,measurement,value
Astressin (peptide),Ki,10 nM
